Data set [1] deals with AP-Endonuclease 1 (APE1) (human) (UniProt P27695). Nature of the data set: SPR. For orientation: In SPR one partner is held on a chip, and binding of the other changes the refractive index at the surface.
Data set [2] has as its target T1, DNA ligase I EE/AA (C-terminal, delta261) (Homo sapiens, UniProt P18858 262-919, E346A;E592A). The experiment in a line: X-ray crystallography.
Data set [3] has as its target T1, DNA ligase I EE/AA (C-terminal, …). The experiment in a line: X-ray crystallography. The source holds these as a separate data set.

Read-outs that look alike come from different tables or passages of the source.

T1 sequence (P18858 262-919 E346A/E592A): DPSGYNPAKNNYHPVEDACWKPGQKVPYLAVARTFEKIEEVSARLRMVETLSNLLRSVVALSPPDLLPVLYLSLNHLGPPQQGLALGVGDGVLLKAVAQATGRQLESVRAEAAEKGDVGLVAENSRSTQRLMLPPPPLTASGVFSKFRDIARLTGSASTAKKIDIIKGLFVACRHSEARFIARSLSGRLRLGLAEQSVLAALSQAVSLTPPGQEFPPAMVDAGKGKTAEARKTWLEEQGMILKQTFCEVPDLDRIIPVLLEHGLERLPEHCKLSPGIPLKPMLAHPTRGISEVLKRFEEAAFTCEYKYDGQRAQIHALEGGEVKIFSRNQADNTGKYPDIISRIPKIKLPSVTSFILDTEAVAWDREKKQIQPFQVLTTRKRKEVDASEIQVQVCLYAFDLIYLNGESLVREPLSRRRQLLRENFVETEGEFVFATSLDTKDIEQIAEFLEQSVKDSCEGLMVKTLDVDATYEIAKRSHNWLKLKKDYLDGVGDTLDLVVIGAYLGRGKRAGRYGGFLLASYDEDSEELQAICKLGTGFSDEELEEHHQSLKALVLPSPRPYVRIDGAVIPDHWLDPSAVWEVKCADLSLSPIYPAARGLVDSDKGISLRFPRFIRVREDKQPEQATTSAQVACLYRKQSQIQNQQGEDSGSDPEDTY
Chain of AP-Endonuclease 1 (APE1) (human) (P27695 whole entry): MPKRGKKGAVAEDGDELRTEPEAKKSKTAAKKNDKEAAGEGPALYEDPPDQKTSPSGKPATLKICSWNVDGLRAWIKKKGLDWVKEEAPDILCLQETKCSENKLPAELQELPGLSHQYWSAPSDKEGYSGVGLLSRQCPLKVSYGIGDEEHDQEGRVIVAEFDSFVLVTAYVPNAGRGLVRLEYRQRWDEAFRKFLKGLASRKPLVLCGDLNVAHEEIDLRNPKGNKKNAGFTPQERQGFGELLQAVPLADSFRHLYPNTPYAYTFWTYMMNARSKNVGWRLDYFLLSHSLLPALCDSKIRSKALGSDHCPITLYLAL

What is called Kd is the concentration at which binding is half-saturated. High values mean weaker binding, low ones tighter binding. Take “DNA ligase I (LIG1) (from UniProt P18858 1-919) (enzyme)”: in data set [1], the Kd was determined as 117 nM. That is a sub-micromolar value.

B1: nick DNA 3'-dG:T (dsDNA)
DNA 1: GCTGATGCGTG
DNA 2: GTCGGAC
DNA 3: GTCCGACTACGCATCAGC
modifications: 5'-phosphate on downstream strand; 5'-adenylated (DNA-AMP) in crystal
For the molecule B1, the binding result in data set [2] is on record as “binds”.

B2: nick DNA 3'-dA:C (dsDNA)
DNA 1: GCTGATGCGTA
DNA 2: GTCGGAC
DNA 3: GTCCGACCACGCATCAGC
modifications: 5'-phosphate on downstream strand
As to B2, in data set [3], the binding result is reported as “binds”.

B3: nick DNA 3'-dA:T (dsDNA)
DNA 1: GCTGATGCGTA
DNA 2: GTCGGAC
DNA 3: GTCCGACTACGCATCAGC
modifications: 5'-phosphate on downstream strand; 5'-adenylated (DNA-AMP) in crystal
For the molecule B3, the binding result in data set [2] is on record as “binds”.

(Values after paper doi:10.1101/2022.01.14.473406.)
